Source: paper doi:10.1101/2022.08.26.505501 (bioRxiv, 2022)

T1: co-expressed Kae1-Pcc1 subcomplex (2Kae1:2Pcc1) (Saccharolobus islandicus REY15A, UniProt F0NFC9 1-331; F0NF65 1-91)
T1 sequence (looked up) 1: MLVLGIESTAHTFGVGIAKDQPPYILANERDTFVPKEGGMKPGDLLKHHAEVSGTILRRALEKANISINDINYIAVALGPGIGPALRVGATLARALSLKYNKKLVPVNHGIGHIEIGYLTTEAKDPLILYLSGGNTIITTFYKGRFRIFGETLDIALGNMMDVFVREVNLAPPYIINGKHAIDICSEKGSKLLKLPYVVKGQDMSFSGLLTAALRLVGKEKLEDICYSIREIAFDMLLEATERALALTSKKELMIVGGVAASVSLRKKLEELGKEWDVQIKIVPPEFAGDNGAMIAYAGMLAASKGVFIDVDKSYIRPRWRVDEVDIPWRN
T1 sequence (looked up) 2: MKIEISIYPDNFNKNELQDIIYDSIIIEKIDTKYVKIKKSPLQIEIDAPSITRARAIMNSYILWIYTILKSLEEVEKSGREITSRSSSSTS

T2: His-Pcc1 co-expressed with no-tagged SisKae1 (Saccharolobus islandicus REY15A, UniProt F0NF65 1-91)
T2 sequence (looked up): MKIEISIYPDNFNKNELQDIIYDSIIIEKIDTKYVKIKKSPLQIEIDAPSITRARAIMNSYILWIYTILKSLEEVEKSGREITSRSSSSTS

B1: no-tagged SisKae1 (enzyme, Saccharolobus islandicus REY15A, UniProt F0NFC9 1-331, looked up)
chain: MLVLGIESTAHTFGVGIAKDQPPYILANERDTFVPKEGGMKPGDLLKHHAEVSGTILRRALEKANISINDINYIAVALGPGIGPALRVGATLARALSLKYNKKLVPVNHGIGHIEIGYLTTEAKDPLILYLSGGNTIITTFYKGRFRIFGETLDIALGNMMDVFVREVNLAPPYIINGKHAIDICSEKGSKLLKLPYVVKGQDMSFSGLLTAALRLVGKEKLEDICYSIREIAFDMLLEATERALALTSKKELMIVGGVAASVSLRKKLEELGKEWDVQIKIVPPEFAGDNGAMIAYAGMLAASKGVFIDVDKSYIRPRWRVDEVDIPWRN

Columns and labels:
Experiment in all cases: SEC
[1] = molecular target: Flag-tagged SisKae1 co-expressed with His-tagged SisPcc1-like (Saccharolobus islandicus REY15A)
[2] = molecular target: B1
[3] = molecular target: T1, co-expressed Kae1-Pcc1 subcomplex …
[4] = molecular target: T2, His-Pcc1 co-expressed with no-tagged …

stoichiometry N (Pcc1-like per Kae1) [1] | stoichiometry N [2] | stoichiometry N [3] | stoichiometry N [4] | Binder
2 | 1 Kae1:Pcc1-like (1:1) | 1 Kae1:Pcc1:Pcc1-like (1:1:1) | – | His-SisPcc1-like (natural protein, Saccharolobus islandicus REY15A, UniProt F0NIH8 1-81, looked up) MIELRILSEHEDAELIIRSLNVDNVNLPEGMSIQTKVEGKELEIVIKMRITKPNDLMTVRNTADEILAHIKALQSSFDAIS
– | – | – | 1 Kae1:Pcc1 (2:2) | B1
